Results published in PMC3351189 (Nucleic Acids Research, 2012).

Target: WD-repeat protein-5 (WDR5), S22-334 (UniProt P61964 22-334)
Assay: ITC

Compared with GSARAEPKMSA [MLL3 Win motif peptide (MLL3Win), C4708S substituted], GAARAEVYLRK [MLL4 Win motif peptide (MLL4Win)] is 68-fold lower in Kd: 2030 nM for the first, 30 nM for the second.

First: GSARSEGYYPI [SET1A Win motif peptide (SET1AWin)]
Second: GSARAEVHLRK [MLL1 Win motif peptide (MLL1Win)]
The Kd of the first is 4.3-fold lower: 260 nM for the first, 1130 nM for the second. The first binds more tightly here.

Going from GCARSEGFYTI [SET1B Win motif peptide (SET1BWin)] to GCARSEPKILT [MLL2 Win motif peptide (MLL2Win)], the Kd rises from 100 nM to 160 nM (1.6-fold).
